# Experimental data from PMC2615213, “Serum Activity of Platelet-Activating Factor Acetylhydrolase Is a Potential Clinical Marker for Leptospirosis Pulmonary Hemorrhage” (PLoS ONE, 2009).
# System: CCCCCCCCCCCCCC(=O)OC[C@H](COP(=O)([O-])OCC[N+](C)(C)C)OC(=O)CCC(=O)Oc1ccc([N+](=O)[O-])cc1
# Test: purified protein
# Settings: chromogenic substrate; mean of duplicate experiments
substance,measurement,value
"rL-PAF-AH (recombinant His-tag-L-PAF-AH, LA2144) (Leptospira interrogans serovar Lai str. 56601)",Km,610 µM
same,kcat,6.61 s⁻¹
same,kcat/Km,10800 M⁻¹ s⁻¹
